Results: PMC11272076 (Journal of Experimental Botany, 2024)
Changes are numbered by the printed parent chain.

Key:
CLuc–CML24 = target: T1, CLuc–CML24 (Arabidopsis thaliana, UniProt P25070 1-161); assay: split reporter
T1 sequence: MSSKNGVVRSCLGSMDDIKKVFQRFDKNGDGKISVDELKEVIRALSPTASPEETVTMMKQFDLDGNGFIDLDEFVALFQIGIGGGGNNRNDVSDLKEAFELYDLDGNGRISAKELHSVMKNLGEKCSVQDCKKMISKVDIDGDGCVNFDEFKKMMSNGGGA

CLuc–CML13 = target: T2, CLuc–CML13 (Arabidopsis thaliana, UniProt Q94AZ4 1-148); assay: split reporter
T2 sequence: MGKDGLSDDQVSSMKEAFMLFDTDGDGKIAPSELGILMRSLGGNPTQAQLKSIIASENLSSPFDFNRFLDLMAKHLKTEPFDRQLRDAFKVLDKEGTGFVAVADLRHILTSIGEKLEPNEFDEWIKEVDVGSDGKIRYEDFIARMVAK

CLuc–CML14 = target: T3, CLuc–CML14 (Arabidopsis thaliana, UniProt Q8VZ50 1-148); assay: split reporter
T3 sequence: T2 sequence with G2S, D8N, Q47E, A48S, A55T, S56T, E117Q, N119S

dansylated CML13 = target: T4, dansylated CML13 (Arabidopsis thaliana, UniProt Q94AZ4 1-148, covalent dansyl label (site not stated)); assay: steady-state dansyl fluorescence spectroscopy
T4 sequence: T2 sequence

dansylated CML14 = target: T5, dansylated CML14 (Arabidopsis thaliana, UniProt Q8VZ50 1-148, covalent dansyl label (site not stated)); assay: steady-state dansyl fluorescence spectroscopy
T5 sequence: T2 sequence with G2S, D8N, Q47E, A48S, A55T, S56T, E117Q, N119S

dansylated CaM = dansylated CaM (petunia, UniProt P62199 1-149, covalent dansyl label (site not stated)); assay: steady-state dansyl fluorescence spectroscopy

B1: myosin ATM2 neck region (residues 878–967), NLuc fusion (domain or fragment)
chain: RKKVLQGIVGLQKHFRGHLSRAYFQNMRKVTLVLQSYIRGENARRLFDTEAKFHADSVSEASTDELSAVIHLQSAVRGWLARKHFNSMQR
- fold signal above background (CML42 control) (CLuc–CML24): ~2 fold

B2: myosin VIII-A neck region (residues 828–930), NLuc fusion (domain or fragment)
chain: RNRTLHGILRLQSYFRGHQARCRLKELKTGITILQSFVRGEKMRKEYTELLQRHRASAAIQSHVKRRIASQQYKATVDASAVIQSAIRGELVRRCAGDIGWLS
- fold signal above background (CML42 control) (CLuc–CML24): ~2 fold
- fold signal above the CML42 control (CLuc–CML13): ~200 fold
- fold signal above the CML42 control (CLuc–CML14): ~200 fold

B3: ATM1-IQ1 synthetic peptide (peptide)
peptide: LHGILRVQSSFRGYQARCLLKEL
- binding result (dansylated CML13): binds
- binding result (dansylated CML14): binds
- binding result (dansylated CaM): binds

B4: myosin ATM1 neck region (residues 848–943), NLuc fusion (domain or fragment)
chain: RTLHGILRVQSSFRGYQARCLLKELKRGISILQSFVRGEKIRKEFAELRRRHKAAATIQSQVKSKIARIQYKGIADASVVIQSAIRGWLVRRCSGD
- fold signal above background (CML42 control) (CLuc–CML24): ~2 fold
- fold signal above the CML42 control (CLuc–CML13): ~35 fold
- fold signal above the CML42 control (CLuc–CML14): ~35 fold

B5: ATM2-IQ1 synthetic peptide (peptide)
peptide: LQGIVGLQKHFRGHLSRAYFQNM
- binding result (dansylated CaM): binds
